Test results reported in article PMC7822592, “The half-life of the bone-derived hormone osteocalcin is regulated through O-glycosylation in mice, but not in humans” (eLife, 2020).
No end group written: not given here. O‑glycan = not defined here

Test: In vivo half-life assay, serum OCN after intraperitoneal injection in Bglap-/- mice
Set-up: species or system mouse
Conditions: for serum OCN / Serum OCN at 120 minutes: fed Bglap-/- male mice; for serum OCN / % OCN from initial (relative to maximum at 30 min) / % OCN from initial, mean used for 1/2 life: 40 ng/g i.p.; for serum OCN: ELISA; for % OCN from initial (relative to maximum at 30 min) / % OCN from initial, mean used for 1/2 life: serum, fasted Bglap-/- mice
Method: For in vivo half-life assay, Bglap-/- male mice were injected intraperitoneally with 40 or 80 ng/g of body weight of mouse O-glycosylated ucOCN or non-glycosylated ucOCN, serum OCN level was analyzed at indicated time points using total mouse OCN ELISA. In all ex vivo and in vivo studies, mouse or human proteins were prepared in saline solution (0.9% NaCl) containing BSA (35 mg/ml) as a carrier.

**Q.** With “O-gly ucOCN: O-glycosylated uncarboxylated mouse osteocalcin produced and purified from HEK293 as Fc fusion, released by thrombin (YLGASVPS(O‑glycan)PDPLEPTREQCELNPACDELSDQYGLKTAYKRIYGITI; ends and bridges not checked; also: O-glycosylated (HexNAc, Hex, NANA); UniProt P86546 50-95, looked up)” as the substance, how does the “serum OCN” value (60 min, mouse 7) read?
**A.** 15.4 ng/mL

**Q.** And the “serum OCN” value (60 min, mouse 8)?
**A.** 40.4 ng/mL

**Q.** What about the “serum OCN” value (60 min, mouse 9) of the same substance?
**A.** 23.7 ng/mL

**Q.** What about the “serum OCN” value (60 min, mouse 10) of the same substance?
**A.** 29.5 ng/mL

**Q.** And the “serum OCN” value (90 min, mouse 1)?
**A.** 11.0 ng/mL

**Q.** What about the “serum OCN” value (90 min, mouse 2) of the same substance?
**A.** 19.1 ng/mL

**Q.** What about the “serum OCN” value (90 min, mouse 3) of the same substance?
**A.** 10.0 ng/mL

**Q.** What about the “serum OCN” value (90 min, mouse 4) of the same substance?
**A.** 23.7 ng/mL

**Q.** And the “serum OCN” value (90 min, mouse 5)?
**A.** 20.1 ng/mL

**Q.** What about the “serum OCN” value (90 min, mouse 6) of the same substance?
**A.** 15.5 ng/mL

**Q.** And the “serum OCN” value (90 min, mouse 7)?
**A.** 7.2 ng/mL

**Q.** And the “serum OCN” value (90 min, mouse 8)?
**A.** 19.6 ng/mL

**Q.** And the “serum OCN” value (90 min, mouse 9)?
**A.** 11.8 ng/mL

**Q.** And the “serum OCN” value (90 min, mouse 10)?
**A.** 11.4 ng/mL

**Q.** And the “serum OCN” value (120 min, mouse 1)?
**A.** 5.5 ng/mL

**Q.** And the “serum OCN” value (120 min, mouse 2)?
**A.** 9.5 ng/mL

**Q.** And the “serum OCN” value (120 min, mouse 3)?
**A.** 4.6 ng/mL

**Q.** What about the “serum OCN” value (120 min, mouse 4) of the same substance?
**A.** 13.3 ng/mL

**Q.** And the “serum OCN” value (120 min, mouse 5)?
**A.** 10.2 ng/mL

**Q.** What about the “serum OCN” value (120 min, mouse 6) of the same substance?
**A.** 7.5 ng/mL

**Q.** And the “serum OCN” value (120 min, mouse 7)?
**A.** 4.4 ng/mL

**Q.** What about the “serum OCN” value (120 min, mouse 8) of the same substance?
**A.** 8.5 ng/mL

**Q.** What about the “serum OCN” value (120 min, mouse 9) of the same substance?
**A.** 6.4 ng/mL

**Q.** What about the “serum OCN” value (120 min, mouse 10) of the same substance?
**A.** 5.9 ng/mL

**Q.** And the “serum OCN” value (180 min, mouse 1)?
**A.** 1.2 ng/mL

**Q.** What about the “serum OCN” value (180 min, mouse 2) of the same substance?
**A.** 2.3 ng/mL

**Q.** And the “serum OCN” value (180 min, mouse 3)?
**A.** 1.0 ng/mL

**Q.** What about the “serum OCN” value (180 min, mouse 4) of the same substance?
**A.** 2.9 ng/mL

**Q.** And the “serum OCN” value (180 min, mouse 5)?
**A.** 2.4 ng/mL

**Q.** And the “serum OCN” value (180 min, mouse 6)?
**A.** 4.2 ng/mL

**Q.** What about the “serum OCN” value (180 min, mouse 7) of the same substance?
**A.** 3.5 ng/mL

**Q.** And the “serum OCN” value (180 min, mouse 8)?
**A.** 4.0 ng/mL

**Q.** And the “serum OCN” value (180 min, mouse 9)?
**A.** 3.7 ng/mL

**Q.** What about the “serum OCN” value (180 min, mouse 10) of the same substance?
**A.** 3.9 ng/mL

**Q.** What about the “Serum OCN at 120 minutes” value (dose 40 ng/g i.p., mouse 1) of the same substance?
**A.** 9.5 ng/mL

**Q.** And the “Serum OCN at 120 minutes” value (dose 40 ng/g i.p., mouse 2)?
**A.** 4.6 ng/mL

**Q.** And the “Serum OCN at 120 minutes” value (dose 40 ng/g i.p., mouse 3)?
**A.** 13.3 ng/mL

**Q.** And the “Serum OCN at 120 minutes” value (dose 40 ng/g i.p., mouse 4)?
**A.** 10.2 ng/mL

**Q.** What about the “Serum OCN at 120 minutes” value (dose 80 ng/g i.p., mouse 1) of the same substance?
**A.** 11.6 ng/mL

**Q.** What about the “Serum OCN at 120 minutes” value (dose 80 ng/g i.p., mouse 2) of the same substance?
**A.** 22.5 ng/mL

**Q.** What about the “Serum OCN at 120 minutes” value (dose 80 ng/g i.p., mouse 3) of the same substance?
**A.** 25.2 ng/mL

**Q.** And the “Serum OCN at 120 minutes” value (dose 80 ng/g i.p., mouse 4)?
**A.** 14.9 ng/mL

**Q.** What about the “% OCN from initial (relative to maximum at 30 min)” value (30 min, mouse 1) of the same substance?
**A.** 100.0%

**Q.** What about the “% OCN from initial (relative to maximum at 30 min)” value (30 min, mouse 2) of the same substance?
**A.** 100.0%

**Q.** What about the “% OCN from initial (relative to maximum at 30 min)” value (30 min, mouse 3) of the same substance?
**A.** 100.0%

**Q.** What about the “% OCN from initial (relative to maximum at 30 min)” value (30 min, mouse 4) of the same substance?
**A.** 100.0%

**Q.** What about the “% OCN from initial (relative to maximum at 30 min)” value (30 min, mouse 5) of the same substance?
**A.** 100.0%

**Q.** And the “% OCN from initial (relative to maximum at 30 min)” value (60 min, mouse 1)?
**A.** 89.4%

**Q.** What about the “% OCN from initial (relative to maximum at 30 min)” value (60 min, mouse 2) of the same substance?
**A.** 88.9%

**Q.** What about the “% OCN from initial (relative to maximum at 30 min)” value (60 min, mouse 3) of the same substance?
**A.** 97.3%

**Q.** And the “% OCN from initial (relative to maximum at 30 min)” value (60 min, mouse 4)?
**A.** 86.4%

**Q.** What about the “% OCN from initial (relative to maximum at 30 min)” value (60 min, mouse 5) of the same substance?
**A.** 90.9%

**Q.** And the “% OCN from initial (relative to maximum at 30 min)” value (90 min, mouse 1)?
**A.** 85.8%

**Q.** What about the “% OCN from initial (relative to maximum at 30 min)” value (90 min, mouse 2) of the same substance?
**A.** 74.3%

**Q.** And the “% OCN from initial (relative to maximum at 30 min)” value (90 min, mouse 3)?
**A.** 85.8%

**Q.** What about the “% OCN from initial (relative to maximum at 30 min)” value (90 min, mouse 4) of the same substance?
**A.** 74.6%

**Q.** And the “% OCN from initial (relative to maximum at 30 min)” value (90 min, mouse 5)?
**A.** 75.0%

**Q.** And the “% OCN from initial (relative to maximum at 30 min)” value (120 min, mouse 1)?
**A.** 70.4%

**Q.** And the “% OCN from initial (relative to maximum at 30 min)” value (120 min, mouse 2)?
**A.** 66.4%

**Q.** What about the “% OCN from initial (relative to maximum at 30 min)” value (120 min, mouse 3) of the same substance?
**A.** 75.1%

**Q.** And the “% OCN from initial (relative to maximum at 30 min)” value (120 min, mouse 4)?
**A.** 74.6%

**Q.** And the “% OCN from initial (relative to maximum at 30 min)” value (120 min, mouse 5)?
**A.** 74.7%

**Q.** What about the “% OCN from initial, mean used for 1/2 life” value (“% OCN from initial, mean used” for short) (time 0 min of declining phase) of the same substance?
**A.** 100.0%

**Q.** And the “% OCN from initial, mean used” value (time 30 min of declining phase)?
**A.** 90.6%

**Q.** What about the “% OCN from initial, mean used” value (time 60 min of declining phase) of the same substance?
**A.** 79.1%

**Q.** And the “% OCN from initial, mean used” value (time 90 min of declining phase)?
**A.** 72.2%
